± gives the standard deviation of the averaged measurements.
Tests used:
Saccharomyces cerevisiae [1] = assay: protein stability index of tFT-peptide fusion (C-terminal peptide) (PSI (0-1 scale)); higher = more stable (slower turnover)
Method: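 MPS profiling in S. cerevisiae of the tFT-X12 degron library: putative degron peptides plus stable controls, 12 aa, fused to the C-terminus of a sfGFP-mCherry timer. Cells are FACS-sorted into 8 mCherry/sfGFP bins and deep-sequenced. PSI runs from 0 (unstable) to 1 (stable). Backgrounds are wild type, das1Δ and doa10Δ at 30 °C, and wild type, das1Δ, cdc34-1 and cdc53-1 at 37 °C; 2-3 technical replicates each.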

Saccharomyces cerevisiae [2] = assay: as above; conditions: genetic background: wild type; temperature: 30 C
[3] = genetic background: cdc34-1, temperature: 37 C
[4] = genetic background: cdc53-1, temperature: 37 C
[5] = genetic background: das1 deletion, temperature: 30 C
[6] = genetic background: das1 deletion, temperature: 37 C
[7] = genetic background: doa10 deletion, temperature: 30 C
[8] = genetic background: wild type, temperature: 30 C
[9] = genetic background: wild type, temperature: 37 C
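Further: PSI is a weighted mean of sequencing reads over stability bins, variants kept only with over 10 reads, mCherry proximal and sfGFP distal, peptide attached via GGGS linker.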

Row | Sequence | protein stability index (Saccharomyces cerevisiae [1]; [3]) | protein stability index (Saccharomyces cerevisiae [1]; [4]) | protein stability index (Saccharomyces cerevisiae [1]; [5]) | protein stability index (Saccharomyces cerevisiae [1]; [6]) | protein stability index (Saccharomyces cerevisiae [1]; [7]) | protein stability index (Saccharomyces cerevisiae [1]; [8]) | protein stability index (Saccharomyces cerevisiae [1]; [9]) | protein stability index (Saccharomyces cerevisiae [2])
1 | SFVCFSYYIVNI | 0.453 ± 0.021 | 0.482 ± 0.005 | 0.377 ± 0.021 | 0.564 ± 0.022 | 0.381 ± 0.023 | 0.363 ± 0.027 | 0.548 ± 0.049 | 0.51 ± 0.03
2 | SFVLLSSFLVFV | 0.249 ± 0.016 | 0.272 ± 0.042 | 0.262 ± 0.02 | 0.39553 ± 9.9e-06 | 0.275 ± 0.0036 | 0.241 ± 0.014 | 0.355 ± 0.0082 | 0.323 ± 0.013
3 | SGFLNVGYLWVC | 0.5625 ± 0.00014 | 0.635 ± 0.0083 | 0.482 ± 0.025 | 0.644 ± 0.017 | 0.149 ± 0.012 | 0.175 ± 0.02 | 0.308 ± 0.02 | 0.239 ± 0.069
4 | SIFLCRLQNLLI | 0.637 ± 0.0071 | 0.742 ± 0.023 | 0.632 ± 0.0083 | 0.734 ± 0.018 | 0.19 ± 0.017 | 0.209 ± 0.035 | 0.407 ± 0.0057 | 0.389 ± 0.077
5 | SILVSIFILAMQ | 0.205 ± 0.029 | 0.311 ± 0.0043 | 0.229 ± 0.043 | 0.412 ± 0.0063 | 0.199 ± 0.008 | 0.219 ± 0.048 | 0.355 ± 0.015 | 0.189 ± 0.019
6 | SIRVIVAVRNIS | 0.621 ± 0.033 | 0.648 ± 0.041 | 0.554 ± 0.023 | 0.663 ± 0.0092 | 0.21 ± 0.015 | 0.239 ± 0.038 | 0.4346 ± 0.0024 | 0.431 ± 0.052
7 | SISVQCSMLRVL | 0.456 ± 0.036 | 0.47 ± 0.0037 | 0.389 ± 0.048 | 0.482 ± 0.0086 | 0.303 ± 0.02 | 0.294 ± 0.018 | 0.387 ± 0.038 | 0.331 ± 0.0089
8 | SLARLRRICFNT | 0.632 ± 0.042 | 0.685 ± 0.0072 | 0.648 ± 0.031 | 0.719 ± 0.023 | 0.254 ± 0.011 | 0.27 ± 0.042 | 0.469 ± 0.021 | 0.3604 ± 0.0024
9 | SLRPFFPPLPRP | 0.631 ± 0.06 | 0.729 ± 0.0088 | 0.69 ± 0.033 | 0.7305 ± 0.0014 | 0.723 ± 0.026 | 0.702 ± 0.031 | 0.7187 ± 0.0031 | 0.666 ± 0.28
10 | SLVPSIFLFRIF | 0.566 ± 0.042 | 0.613 ± 0.0084 | 0.544 ± 0.028 | 0.682 ± 0.0094 | 0.323 ± 0.0096 | 0.307 ± 0.022 | 0.467 ± 0.014 | 0.4516 ± 0.0032
11 | SLVVMGSLWLRI | 0.275 ± 0.15 | 0.162 ± 0.093 | 0.346 ± 0.081 | 0.463 ± 0.024 | 0.468 ± 0.052 | 0.314 ± 0.077 | 0.425 ± 0.07 | 0.415 ± 0.0096
12 | SMGVLITYLVQV | 0.399 ± 0.021 | 0.461 ± 0.012 | 0.324 ± 0.024 | 0.51 ± 0.015 | 0.25 ± 0.007 | 0.288 ± 0.033 | 0.452 ± 0.0061 | 0.45 ± 0.04
13 | SMPWFWFVRGIG | 0.497 ± 0.041 | 0.531 ± 0.0014 | 0.5 ± 0.017 | 0.557 ± 0.0094 | 0.438 ± 0.032 | 0.417 ± 0.013 | 0.5186 ± 0.0039 | 0.461 ± 0.0082
14 | SNFDVRRLLVIQ | 0.616 ± 0.073 | 0.702 ± 0.038 | 0.588 ± 0.021 | 0.697 ± 0.0065 | 0.29 ± 0.0061 | 0.329 ± 0.039 | 0.54 ± 0.014 | 0.455 ± 0.033
15 | SPSTPQALSNFS | 0.679 ± 0.0097 | 0.748 ± 0.015 | 0.657 ± 0.032 | 0.7376 ± 0.0054 | 0.664 ± 0.022 | 0.663 ± 0.025 | 0.715 ± 0.027 | 0.715 ± 0.038
16 | SPTIFLPLFLTS | 0.426 ± 0.026 | 0.415 ± 0.014 | 0.397 ± 0.028 | 0.522 ± 0.016 | 0.621 ± 0.016 | 0.4 ± 0.029 | 0.468 ± 0.0067 | 0.376 ± 0.037
17 | SRARIRLPRILS | 0.648 ± 0.033 | 0.71 ± 0.0083 | 0.661 ± 0.026 | 0.72403 ± 0.00037 | 0.208 ± 0.0047 | 0.225 ± 0.052 | 0.494 ± 0.015 | 0.333 ± 0.024
18 | SSLTFTFAILLY | 0.19 ± 0.026 | 0.188 ± 0.011 | 0.207 ± 0.025 | 0.339 ± 0.015 | 0.369 ± 0.018 | 0.219 ± 0.025 | 0.312 ± 0.052 | 0.339 ± 0.011
19 | STLPACNCLKLL | 0.663 ± 0.015 | 0.7607 ± 0.0055 | 0.622 ± 0.011 | 0.741 ± 0.013 | 0.332 ± 0.015 | 0.371 ± 0.03 | 0.565 ± 0.015 | 0.426 ± 0.069
20 | STNMDNRIRTLA | 0.659 ± 0.011 | 0.714 ± 0.012 | 0.638 ± 0.031 | 0.72 ± 0.013 | 0.311 ± 0.0059 | 0.356 ± 0.023 | 0.556 ± 0.017 | 0.431 ± 0.0013
21 | SVIVSSFFLWVF | 0.381 ± 0.051 | 0.454 ± 0.035 | 0.298 ± 0.03 | 0.482 ± 0.0072 | 0.2026 ± 0.00069 | 0.223 ± 0.029 | 0.426 ± 0.016 | 0.288 ± 0.019
22 | SVLVWFLVFLVW | 0.209 ± 0.0046 | 0.235 ± 0.02 | 0.223 ± 0.028 | 0.3733 ± 0.0037 | 0.218 ± 0.019 | 0.211 ± 0.026 | 0.321 ± 0.042 | 0.315 ± 0.012
23 | SVVYCRMRVHFV | 0.403 ± 0.024 | 0.487 ± 0.046 | 0.373 ± 0.015 | 0.432 ± 0.014 | 0.263 ± 0.01 | 0.285 ± 0.02 | 0.3786 ± 0.0025 | 0.285 ± 0.0052
24 | SWGEQDRLTGYI | 0.715 ± 0.029 | 0.77 ± 0.02 | 0.689 ± 0.024 | 0.787 ± 0.0083 | 0.669 ± 0.018 | 0.674 ± 0.026 | 0.712 ± 0.023 | 0.7195 ± 0.0031
25 | SWMFKLCIQWNV | 0.5147 ± 0.0019 | 0.567 ± 0.023 | 0.502 ± 0.011 | 0.5321 ± 0.00098 | 0.467 ± 0.029 | 0.456 ± 0.013 | 0.49 ± 0.019 | 0.467 ± 0.012
26 | SWSLRLSTIFSV | 0.609 ± 0.11 | 0.664 ± 0.016 | 0.612 ± 0.025 | 0.667 ± 0.0072 | 0.189 ± 0.0053 | 0.219 ± 0.018 | 0.352 ± 0.022 | 0.367 ± 0.0041
27 | SYFASLLDLFTA | 0.727 ± 0.062 | 0.77 ± 0.0079 | 0.66 ± 0.011 | 0.766 ± 0.018 | 0.669 ± 0.018 | 0.674 ± 0.012 | 0.759 ± 0.021 | 0.598 ± 0.16
28 | TDSSWEVSLMVG | 0.679 ± 0.051 | 0.747 ± 0.036 | 0.612 ± 0.012 | 0.733 ± 0.016 | 0.605 ± 0.023 | 0.6186 ± 0.0039 | 0.741 ± 0.026 | 0.374 ± 0.053
29 | TDVLLLQLLISV | 0.202 ± 0.021 | 0.228 ± 0.059 | 0.225 ± 0.028 | 0.338 ± 0.018 | 0.184 ± 0.007 | 0.219 ± 0.032 | 0.316 ± 0.0075 | 0.311 ± 0.012
30 | TGPLVHLLCCCV | 0.354 ± 0.011 | 0.417 ± 0.011 | 0.313 ± 0.028 | 0.3955 ± 0.0013 | 0.284 ± 0.0075 | 0.315 ± 0.019 | 0.386 ± 0.0074 | 0.421 ± 0.011

From the supplement of paper PMC10724198
